According to patent US20260242487A1:

B1: Aprutumab (antibody, INN chains, looked up, V domains shown)
VH: EVQLLESGGGLVQPGGSLRLSCAASGFTFSSYAMSWVRQAPGKGLEWVSAISGSGTSTYYADSVKGRFTISRDNSKNTLYLQMNSLRAEDTAVYYCARVRYNWNHGDWFDPWGQGTLVTVSS
VL: QSVLTQPPSASGTPGQRVTISCSGSSSNIGNNYVSWYQQLPGTAPKLLIYENYNRPAGVPDRFSGSKSGTSASLAISGLRSEDEADYYCSSWDDSLNYWVFGGGTKLTVL
B2: FPA144 (antibody, INN chains, looked up, V domains shown)
VH: QVQLVQSGAEVKKPGSSVKVSCKASGYIFTTYNVHWVRQAPGQGLEWIGSIYPDNGDTSYNQNFKGRATITADKSTSTAYMELSSLRSEDTAVYYCARGDFAYWGQGTLVTVSS
VL: DIQMTQSPSSLSASVGDRVTITCKASQGVSNDVAWYQQKPGKAPKLLIYSASYRYTGVPSRFSGSGSGTDFTFTISSLQPEDIATYYCQQHSTTPYTFGQGTKLEIK

Tests used:
[1] = biological target: human FGFR2c expressed on CHOK1 cells (human) (UniProt P21802); test: flow cytometry on CHOK1 cells expressing hFGFR2c, detection with APC anti-human IgG Fc
Chain of human FGFR2c expressed on CHOK1 cells (human) (P21802 22-821): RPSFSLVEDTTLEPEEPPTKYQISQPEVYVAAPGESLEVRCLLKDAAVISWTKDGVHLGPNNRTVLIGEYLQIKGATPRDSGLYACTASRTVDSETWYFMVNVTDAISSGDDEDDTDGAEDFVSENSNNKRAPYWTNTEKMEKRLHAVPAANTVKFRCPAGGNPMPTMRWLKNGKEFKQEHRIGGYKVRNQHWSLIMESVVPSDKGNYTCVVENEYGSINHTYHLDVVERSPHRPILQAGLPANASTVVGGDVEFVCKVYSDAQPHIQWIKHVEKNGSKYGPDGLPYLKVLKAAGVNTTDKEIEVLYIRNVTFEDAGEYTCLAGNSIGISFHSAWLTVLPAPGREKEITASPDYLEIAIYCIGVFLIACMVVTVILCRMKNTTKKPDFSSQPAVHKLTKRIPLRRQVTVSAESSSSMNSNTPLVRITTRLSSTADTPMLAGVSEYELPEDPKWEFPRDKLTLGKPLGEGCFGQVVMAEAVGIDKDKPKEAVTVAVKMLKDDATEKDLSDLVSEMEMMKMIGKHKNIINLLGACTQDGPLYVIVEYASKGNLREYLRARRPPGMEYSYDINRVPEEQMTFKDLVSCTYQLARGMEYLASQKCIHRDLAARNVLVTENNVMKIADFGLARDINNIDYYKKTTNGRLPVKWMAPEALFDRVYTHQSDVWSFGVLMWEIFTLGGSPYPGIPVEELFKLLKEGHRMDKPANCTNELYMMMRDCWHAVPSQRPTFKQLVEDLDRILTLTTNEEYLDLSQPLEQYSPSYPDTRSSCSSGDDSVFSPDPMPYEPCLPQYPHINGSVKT

[2] = biological target: hFGFR2b-Fc (Kactus, Catalog #FGR-HM2BB) (human) (UniProt P21802); test: competition ELISA: inhibition of biotin-FGF10 binding to coated hFGFR2b-Fc
Chain of hFGFR2b-Fc (Kactus, Catalog #FGR-HM2BB) (human) (P21802 other isoform, or with tags, fused parts or gaps): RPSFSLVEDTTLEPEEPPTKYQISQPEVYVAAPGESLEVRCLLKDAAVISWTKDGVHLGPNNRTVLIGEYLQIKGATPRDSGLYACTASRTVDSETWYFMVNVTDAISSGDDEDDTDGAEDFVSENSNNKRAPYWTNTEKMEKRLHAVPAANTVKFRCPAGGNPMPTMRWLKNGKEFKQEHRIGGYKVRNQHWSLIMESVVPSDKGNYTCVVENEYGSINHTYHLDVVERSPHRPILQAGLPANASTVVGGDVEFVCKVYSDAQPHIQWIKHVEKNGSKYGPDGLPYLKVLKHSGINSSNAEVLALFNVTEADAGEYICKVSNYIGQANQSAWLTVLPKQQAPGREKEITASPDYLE

[3] = biological target: hFGFR2b-Fc (Kactus, Catalog #FGR-HM2BB) (human) (UniProt P21802); test: epitope binning ELISA: competing Ab FPA144 in solution with biotin-hFGFR2b-Fc; competitor (column, coated) HC18
[4] = biological target: hFGFR2b-Fc (Kactus, Catalog #FGR-HM2BB) (human) (UniProt P21802); test: epitope binning ELISA: competing Ab FPA144 in solution with biotin-hFGFR2b-Fc; competitor (column, coated) FPA144
[5] = biological target: hFGFR2b-Fc (Kactus, Catalog #FGR-HM2BB) (human) (UniProt P21802); test: competition ELISA: inhibition of FGF7-his binding to coated hFGFR2b-Fc
[6] = biological target: human FGFR2b expressed on cells (hFGFR2b-expressing CHOK1 cells; Ba/F3 cells expressing full-length human FGFR2b) (human) (UniProt P21802); test: flow cytometry on CHOK1 cells expressing hFGFR2b, detection with APC anti-human IgG Fc
Chain of human FGFR2b expressed on cells (hFGFR2b-expressing CHOK1 cells; Ba/F3 cells expressing full-length human FGFR2b) (human) (P21802 other isoform, or with tags, fused parts or gaps): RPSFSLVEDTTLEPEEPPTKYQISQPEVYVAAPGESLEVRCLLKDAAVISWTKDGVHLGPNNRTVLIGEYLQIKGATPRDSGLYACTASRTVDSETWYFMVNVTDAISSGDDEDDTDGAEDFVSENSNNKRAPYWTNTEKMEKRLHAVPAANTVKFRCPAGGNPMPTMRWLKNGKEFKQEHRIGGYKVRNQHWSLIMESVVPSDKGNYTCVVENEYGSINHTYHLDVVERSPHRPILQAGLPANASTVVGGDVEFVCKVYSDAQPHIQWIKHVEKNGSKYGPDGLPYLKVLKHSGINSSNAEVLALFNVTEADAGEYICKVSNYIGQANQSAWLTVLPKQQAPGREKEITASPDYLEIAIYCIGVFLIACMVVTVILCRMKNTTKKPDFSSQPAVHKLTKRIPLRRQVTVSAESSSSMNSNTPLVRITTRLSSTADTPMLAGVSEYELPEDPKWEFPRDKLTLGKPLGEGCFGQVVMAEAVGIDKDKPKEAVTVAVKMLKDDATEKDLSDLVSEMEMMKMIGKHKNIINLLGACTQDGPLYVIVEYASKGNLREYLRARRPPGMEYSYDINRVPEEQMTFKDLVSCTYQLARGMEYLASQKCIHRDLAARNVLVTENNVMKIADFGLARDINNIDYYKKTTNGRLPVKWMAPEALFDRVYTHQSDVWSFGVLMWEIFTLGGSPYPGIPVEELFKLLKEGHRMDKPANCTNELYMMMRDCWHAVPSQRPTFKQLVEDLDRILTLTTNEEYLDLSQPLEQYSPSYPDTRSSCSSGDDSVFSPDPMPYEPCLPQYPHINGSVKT

Binder	EC50 (read off the curve) [1]	IC50 [2]	Inhibition (%) [2]	ODmin [2]	percent competition (epitope binning; value not given) [3]	percent competition (epitope binning; value not given) [4]	IC50 [5]	Inhibition (%) [5]	ODmin [5]	EC50 (read off the curve) [6]
B1	1 nM	–	–	–	–	–	–	–	–	–
B2	–	6.65 nM	100%	0.496 OD	98%	98%	2.4 nM	100%	0.172 OD	0.2 nM
